Measured values published in publication PMC4551322 (Molecular Biology of the Cell, 2015).

Target: the molecule itself
Experiment: velocity sedimentation assay

B1: Drp1 K38A (enzyme)
chain: MEALIPVINKLQDVFNTVGADIIQLPQIVVVGTQSSGASSVLESLVGRDLLPRGTGIVTRRPLILQLVHVSQEDKRKTTGEENGVEAEEWGKFLHTKNKLYTDFDEIRQEIENETERISGNNKGVSPEPIHLKIFSPNVVNLTLVDLPGMTKVPVGDQPKDIELQIRELILRFISNPNSIILAVTAANTDMATSEALKISREVDPDGRRTLAVITKLDLMDAGTDAMDVLMGRVIPVKLGIIGVVNRSQLDINNKKSVTDSIRDEYAFLQKKYPSLANRNGTKYLARTLNRLLMHHIRDCLPELKTRINVLAAQYQSLLNSYGEPVDDKSATLLQLITKFATEYCNTIEGTAKYIETSELCGGARICYIFHETFGRTLESVDPLGGLNTIDILTAIRNATGPRPALFVPEVSFELLVKRQIKRLEEPSLRCVELVHEEMQRIIQHCSNYSTQELLRFPKLHDAIVEVVTCLLRKRLPVTNEMVHNLVAIELAYINTKHPDFADACGLMNNNIEEQRRNRLARELPSAVSRDKVASGGGGVGDGVQEPTTGNWRGMLKTSKAEELLAEEKSKPIPIMPASPQKGHAVNLLDVPVPVARKLSAREQRDCEVIERLIKSYFLIVRKNIQDSVPKAVMHFLVNHVKDTLQSELVGQLYKSSLLDDLLTESEDMAQRRKEAADMLKALQGASQIIAEIRETHLW
binding result: binds
